Seven molecules from US20130236458A1 (AbbVie / Abbott, published 2013) can be followed below.

As usually defined, the Kd is a measure of binding affinity in units of concentration. A word on the koff: it is a measure of how fast the partners let go of each other. As usually defined, the kon is a measure of how fast the partners come together.

Assay [1] deals with T1, Recombinant Human IL-13 (human, UniProt P35225 35-146, limits assumed).
T1 construct: bought reagent
As to the kind of experiment: SPR (Biacore). The procedure: (§1) The BIACORE assay (Biacore, Inc, Piscataway, N.J.) determined the affinity of antibodies or DVD-Ig with kinetic measurements of on-rate and off-rate constants. Binding of antibodies or DVD-Ig proteins to a target antigen (for example, a purified recombinant target antigen) was determined by surface plasmon resonance-based measurements with a Biacore®1000 or 3000 instrument (Biacore® AB, Uppsala, Sweden) using running HBS-EP (10 mM HEPES [pH 7.4], 150 mM NaCl, 3 mM EDTA, and 0.005% surfactant P20) at 25° C. All chemicals were obtained from Biacore® AB (Uppsala, Sweden) or otherwise from a different source as described in the text. For example, approximately 5000 RU of goat anti-mouse IgG, (Fcγ), fragment specific polyclonal antibody (Pierce Biotechnology Inc, Rockford, Ill.) diluted in 10 mM sodium acetate (pH 4.5) was directly immobilized across a CM5 research grade biosensor chip using a standard amine coupling kit according to manufacturer's instructions and procedures at 25 μg/ml. Unreacted moieties on the biosensor surface were blocked with ethanolamine. Modified carboxymethyl dextran surface in flowcell 2 and 4 was used as a reaction surface. Unmodified carboxymethyl dextran without goat anti-mouse IgG in flow cell 1 and 3 was used as the reference surface. For kinetic analysis, rate equations derived from the 1:1 Langmuir binding model were fitted simultaneously to association and dissociation phases of all eight injections (using global fit analysis) with the use of Biaevaluation 4.0.1 software. Purified antibodies or DVD-Ig proteins were diluted in HEPES-buffered saline for capture across goat anti-mouse IgG specific reaction surfaces. Antibodies or DVD-Ig proteins to be captured as a ligand (25 μg/ml) were injected over reaction matrices at a flow rate of 5 μl/minute. The association and dissociation rate constants, kₒₙ (M⁻¹s⁻¹) and koff (s⁻¹) were determined under a continuous flow rate of 25 μl/minute. Rate constants were derived by making kinetic binding measurements at different antigen concentrations ranging from 10-200 nM. The equilibrium dissociation constant (M) of the reaction between antibodies or DVD-Ig proteins and the target antigen was then calculated from the kinetic rate constants by the following formula: KD=koff/kₒₙ. Binding was recorded as a function of time and kinetic rate constants were calculated.

The target of assay [2] is T2, Recombinant Human IL-17 (human, UniProt Q16552 20-155, limits assumed).
T2 construct: bought reagent; also called IL-17A
T2 sequence (looked up): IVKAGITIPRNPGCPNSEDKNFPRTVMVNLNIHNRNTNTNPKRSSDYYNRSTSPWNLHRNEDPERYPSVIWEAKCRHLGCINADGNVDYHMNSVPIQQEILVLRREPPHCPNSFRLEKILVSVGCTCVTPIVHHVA
As to the kind of experiment: SPR (Biacore). The procedure: as §1
(SPR reads the build-up and loss of mass on a sensor chip optically.)

Assay [3] addresses T1, Recombinant Human IL-13. As to the kind of experiment: cell-based or functional assay.
Assay [4] addresses T2, Recombinant Human IL-17. Nature of the assay: cell-based or functional assay.

T1 sequence (P35225 35-146 limits assumed): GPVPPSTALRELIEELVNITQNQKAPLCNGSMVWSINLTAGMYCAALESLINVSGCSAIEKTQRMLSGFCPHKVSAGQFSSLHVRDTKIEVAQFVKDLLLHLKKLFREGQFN

B1: DVD2155 (bispecific antibody)
VH: EVQLVQSGAEVKKPGSSVKVSCKASGGSFGGYGIGWVRQAPGQGLEWMGGITPFFGFADYAQKFQGRVTITADESTTTAYMELSGLTSDDTAVYYCARDPNEFWNGYYSTHDFDSWGQGTTVTVSSASTKGPEVTLRESGPGLVKPTQTLTLTCTLYGFSLSTSDMGVDWIRQPPGKGLEWLAHIWWDDVKRYNPALKSRLTISKDTSKNQVVLKLTSVDPVDTATYYCARTVSSGYIYYAMDYWGQGTLVTVSS
VL: EIVLTQSPDFQSVTPKEKVTITCRASQDIGSELHWYQQKPDQPPKLLIKYASHSTSGVPSRFSGSGSGTDFTLTINGLEAEDAGTYYCHQTDSLPYTFGPGTKVDIKRTVAAPDIQMTQSPSSLSASVGDRVTISCRASQDIRNYLNWYQQKPGKAPKLLIFYTSKLHSGVPSRFSGSGSGTDYTLTISSLQPEDIATYYCQQGLTPPLTFGGGTKVEIKR
notes: DVD-Ig; also called DVD2155H; DVD2155L
As to B1, in assay [1], the dissociation constant (Kd) was 0.16 nM, the koff was determined as 3.8e-05 s⁻¹ and the kon was 230000 M⁻¹ s⁻¹. For the same molecule, in assay [2], the Kd is 0.0026 nM, the koff worked out at 6.9e-06 s⁻¹ and the kon was 2.7e+06 M⁻¹ s⁻¹. The “C-Terminal VD IL13 Neutralization Assay IC50” value in assay [3] is 1.18 nM. Further, the “N-Terminal VD IL17 Neutralization Assay IC50” value in assay [4] came out at 0.0078 nM.

B2: DVD2157 (bispecific antibody)
VH: EVQLVQSGAEVKKPGSSVKVSCKASGGSFGGYGIGWVRQAPGQGLEWMGGITPFFGFADYAQKFQGRVTITADESTTTAYMELSGLTSDDTAVYYCARDPNEFWNGYYSTHDFDSWGQGTTVTVSSASTKGPEVTLRESGPGLVKPTQTLTLTCTLYGFSLSTSDMGVDWIRQPPGKGLEWLAHIWWDDVKRYNPALKSRLTISKDTSKNQVVLKLTSVDPVDTATYYCARTVSSGYIYYAMDYWGQGTLVTVSS
VL: EIVLTQSPDFQSVTPKEKVTITCRASQDIGSELHWYQQKPDQPPKLLIKYASHSTSGVPSRFSGSGSGTDFTLTINGLEAEDAGTYYCHQTDSLPYTFGPGTKVDIKRTVAAPSVFIFPPDIQMTQSPSSLSASVGDRVTISCRASQDIRNYLNWYQQKPGKAPKLLIFYTSKLHSGVPSRFSGSGSGTDYTLTISSLQPEDIATYYCQQGLTPPLTFGGGTKVEIKR
notes: DVD-Ig; also called DVD2157H; DVD2157L
With B2, in assay [1], the Kd was 0.21 nM, the koff turned out to be 6.9e-05 s⁻¹ and the kon was 330000 M⁻¹ s⁻¹. Also, in assay [2], the Kd was found to be 0.018 nM, the koff was determined as 2.6e-05 s⁻¹ and the kon stood at 1.5e+06 M⁻¹ s⁻¹. Further, the “C-Terminal VD IL13 Neutralization Assay IC50” value in assay [3] turned out to be 0.244 nM. Also, the “N-Terminal VD IL17 Neutralization Assay IC50” value in assay [4] is 0.0066 nM.

B3: DVD2159 (bispecific antibody)
VH: EVQLVQSGAEVKKPGSSVKVSCKASGGSFGGYGIGWVRQAPGQGLEWMGGITPFFGFADYAQKFQGRVTITADESTTTAYMELSGLTSDDTAVYYCARDPNEFWNGYYSTHDFDSWGQGTTVTVSSASTKGPSVFPLAPEVTLRESGPGLVKPTQTLTLTCTLYGFSLSTSDMGVDWIRQPPGKGLEWLAHIWWDDVKRYNPALKSRLTISKDTSKNQVVLKLTSVDPVDTATYYCARTVSSGYIYYAMDYWGQGTLVTVSS
VL: EIVLTQSPDFQSVTPKEKVTITCRASQDIGSELHWYQQKPDQPPKLLIKYASHSTSGVPSRFSGSGSGTDFTLTINGLEAEDAGTYYCHQTDSLPYTFGPGTKVDIKRTVAAPDIQMTQSPSSLSASVGDRVTISCRASQDIRNYLNWYQQKPGKAPKLLIFYTSKLHSGVPSRFSGSGSGTDYTLTISSLQPEDIATYYCQQGLTPPLTFGGGTKVEIKR
notes: DVD-Ig; also called DVD2159H; DVD2159L
For the molecule B3, in assay [1], the Kd stood at 0.2 nM, the koff was found to be 5.3e-05 s⁻¹ and the kon was 260000 M⁻¹ s⁻¹. For the same molecule, in assay [2], the Kd was 0.0049 nM, the koff was determined as 1.2e-05 s⁻¹ and the kon turned out to be 2.5e+06 M⁻¹ s⁻¹. Moreover, the “C-Terminal VD IL13 Neutralization Assay IC50” value in assay [3] worked out at 0.876 nM. Moreover, the “N-Terminal VD IL17 Neutralization Assay IC50” value in assay [4] was 0.0081 nM.

B4: DVD2161 (bispecific antibody)
VH: EVQLVQSGAEVKKPGESVKISCKASGGSFRSYGISWVRQAPGQGLEWMGGITHFFGITDYAQKFQGRVTITADESTTTAYMELSGLTSDDTAVYYCAREPNDFWNGYYDTHDFDSWGQGTTVTVSSASTKGPEVTLRESGPGLVKPTQTLTLTCTLYGFSLSTSDMGVDWIRQPPGKGLEWLAHIWWDDVKRYNPALKSRLTISKDTSKNQVVLKLTSVDPVDTATYYCARTVSSGYIYYAMDYWGQGTLVTVSS
VL: EIVLTQSPDFQSVTPKEKVTITCRASQNIGSELHWYQQKPDQSPKLLIKYASHSISGVPSRFSGSGSGTDFTLTINGLEAEDAATYYCHQSDTLPHTFGQGTKVDIKRTVAAPDIQMTQSPSSLSASVGDRVTISCRASQDIRNYLNWYQQKPGKAPKLLIFYTSKLHSGVPSRFSGSGSGTDYTLTISSLQPEDIATYYCQQGLTPPLTFGGGTKVEIKR
notes: DVD-Ig; also called DVD2161H; DVD2161L
On to B4, for which, in assay [1], the Kd worked out at 0.38 nM, the koff was 4.1e-05 s⁻¹ and the kon was found to be 110000 M⁻¹ s⁻¹. In addition, in assay [2], the Kd came out at 0.027 nM, the koff was determined as 4.5e-05 s⁻¹ and the kon was found to be 1.6e+06 M⁻¹ s⁻¹. In assay [3], the “C-Terminal VD IL13 Neutralization Assay IC50” value is 0.812 nM. For the same molecule, in assay [4], the “N-Terminal VD IL17 Neutralization Assay IC50” value was 0.0144 nM.

B5: DVD2200 (bispecific antibody)
VH: EVQLVQSGAEVKKPGASVKVSCKASGYTFTSYWMHWVRQAPGQGLEWIGNINPKGGSNIYNEKFQGRVTMTRDTSISTAYMELSRLRSDDTAVYYCARLDYFGDSFDLWGQGTTVTVSSASTKGPSVFPLAPEVQLVQSGAEVKKPGESVKISCKASGGSFRSYGISWVRQAPGQGLEWMGGITHFFGITDYAQKFQGRVTITADESTTTAYMELSGLTSDDTAVYYCAREPNDFWNGYYDTHDFDSWGQGTTVTVSS
VL: DIQMTQSPSSLSASVGDRVTITCRASQGIRNYLNWYQQKPGKAPKLLIYYASNLEVGVPSRFSGSGSGTDYTLTISSLQPEDFATYYCQQDNRFPYTFGGGTKVEIKRTVAAPEIVLTQSPDFQSVTPKEKVTITCRASQNIGSELHWYQQKPDQSPKLLIKYASHSISGVPSRFSGSGSGTDFTLTINGLEAEDAATYYCHQSDTLPHTFGQGTKVDIKR
notes: DVD-Ig; also called DVD2200H; DVD2200L
B5: in assay [1], the dissociation constant (Kd) is 0.045 nM, the koff was 6e-05 s⁻¹ and the kon amounted to 1.3e+06 M⁻¹ s⁻¹. In assay [2], the Kd was determined as 0.025 nM, the koff stood at 4.6e-06 s⁻¹ and the association rate constant (kon) turned out to be 180000 M⁻¹ s⁻¹. For the same molecule, the “N-Terminal VD IL13 Neutralization Assay IC50” value in assay [3] worked out at 0.096 nM. For the same molecule, the “C-Terminal VD IL17 Neutralization Assay IC50” value in assay [4] was 0.0072 nM.

B6: DVD2158 (bispecific antibody)
VH: EVTLRESGPGLVKPTQTLTLTCTLYGFSLSTSDMGVDWIRQPPGKGLEWLAHIWWDDVKRYNPALKSRLTISKDTSKNQVVLKLTSVDPVDTATYYCARTVSSGYIYYAMDYWGQGTLVTVSSASTKGPSVFPLAPEVQLVQSGAEVKKPGSSVKVSCKASGGSFGGYGIGWVRQAPGQGLEWMGGITPFFGFADYAQKFQGRVTITADESTTTAYMELSGLTSDDTAVYYCARDPNEFWNGYYSTHDFDSWGQGTTVTVSS
VL: DIQMTQSPSSLSASVGDRVTISCRASQDIRNYLNWYQQKPGKAPKLLIFYTSKLHSGVPSRFSGSGSGTDYTLTISSLQPEDIATYYCQQGLTPPLTFGGGTKVEIKRTVAAPEIVLTQSPDFQSVTPKEKVTITCRASQDIGSELHWYQQKPDQPPKLLIKYASHSTSGVPSRFSGSGSGTDFTLTINGLEAEDAGTYYCHQTDSLPYTFGPGTKVDIKR
notes: DVD-Ig; also called DVD2158H; DVD2158L
Consider B6, for which, in assay [1], the Kd is 0.086 nM, the koff was 0.00014 s⁻¹ and the kon was 1.6e+06 M⁻¹ s⁻¹. Besides, in assay [2], the dissociation constant (Kd) was less than 0.05 nM, the koff is less than 1e-06 s⁻¹ and the kon came out at 20000 M⁻¹ s⁻¹. Further, the “N-Terminal VD IL13 Neutralization Assay IC50” value in assay [3] came to 0.131 nM. For the same molecule, the “C-Terminal VD IL17 Neutralization Assay IC50” value in assay [4] amounted to 0.0998 nM.

B7: DVD2201 (bispecific antibody)
VH: EVQLVQSGAEVKKPGESVKISCKASGGSFRSYGISWVRQAPGQGLEWMGGITHFFGITDYAQKFQGRVTITADESTTTAYMELSGLTSDDTAVYYCAREPNDFWNGYYDTHDFDSWGQGTTVTVSSASTKGPSVFPLAPEVQLVQSGAEVKKPGASVKVSCKASGYTFTSYWMHWVRQAPGQGLEWIGNINPKGGSNIYNEKFQGRVTMTRDTSISTAYMELSRLRSDDTAVYYCARLDYFGDSFDLWGQGTTVTVSS
VL: EIVLTQSPDFQSVTPKEKVTITCRASQNIGSELHWYQQKPDQSPKLLIKYASHSISGVPSRFSGSGSGTDFTLTINGLEAEDAATYYCHQSDTLPHTFGQGTKVDIKRTVAAPDIQMTQSPSSLSASVGDRVTITCRASQGIRNYLNWYQQKPGKAPKLLIYYASNLEVGVPSRFSGSGSGTDYTLTISSLQPEDFATYYCQQDNRFPYTFGGGTKVEIKR
notes: DVD-Ig; also called DVD2201H; DVD2201L
In the case of B7, in assay [1], the Kd is 0.024 nM, the off-rate constant (koff) stood at 5.7e-05 s⁻¹ and the kon turned out to be 2.4e+06 M⁻¹ s⁻¹. In addition, in assay [2], the Kd turned out to be 0.04 nM, the koff is 6.3e-05 s⁻¹ and the kon was found to be 1.6e+06 M⁻¹ s⁻¹. For the same molecule, in assay [3], the “C-Terminal VD IL13 Neutralization Assay IC50” value was determined as 0.092 nM. Moreover, the “N-Terminal VD IL17 Neutralization Assay IC50” value in assay [4] turned out to be 0.0116 nM.
